Usually Kd stands for the free concentration of one partner at which half of the binding sites on the other are occupied at equilibrium, for simple one-to-one binding. The koff is a measure of how fast the partners let go of each other.

Here are results for nine molecules from article PMC6308234 (Scientific Reports, 2018).

Test [1] concerns the target T1, DENV-1 nonstructural protein 1 (NS1), recombinant (Dengue virus 1, strain Nauru/West …, UniProt P17763).
T1 construct: also called DENV-1 NS1; NS1 from DENV-1; source: bought: Native Antigen Company (recombinant)
Kind of test: SPR. Conditions: both partners purified.

Test [2] deals with T2, DENV-2 nonstructural protein 1 (NS1), recombinant (Dengue virus 2, strain …, UniProt P29990).
T2 construct: also called DENV-2 NS1; NS1 from DENV-2; source: bought: Native Antigen Company (recombinant)
Kind of test: SPR. Conditions: both partners purified.

Test [3] deals with T3, DENV-3 nonstructural protein 1 (NS1), recombinant (Dengue virus 3, strain Sri …, UniProt Q6YMS4).
T3 construct: also called DENV-3 NS1; NS1 from DENV-3; source: bought: Native Antigen Company (recombinant)
Kind of test: SPR. As to conditions: both partners purified.

The target in test [4] is T4, DENV-4 nonstructural protein 1 (NS1), recombinant (Dengue virus 4, strain …, UniProt P09866).
T4 construct: also called DENV-4 NS1; NS1 from DENV-4; source: bought: Native Antigen Company (recombinant)
Put plainly: SPR. Conditions: both partners purified.

In test [5] the target is T5, DENV-1 nonstructural protein 1 (NS1), recombinant (dengue virus serotype 1 (DENV-1)).
T5 chain: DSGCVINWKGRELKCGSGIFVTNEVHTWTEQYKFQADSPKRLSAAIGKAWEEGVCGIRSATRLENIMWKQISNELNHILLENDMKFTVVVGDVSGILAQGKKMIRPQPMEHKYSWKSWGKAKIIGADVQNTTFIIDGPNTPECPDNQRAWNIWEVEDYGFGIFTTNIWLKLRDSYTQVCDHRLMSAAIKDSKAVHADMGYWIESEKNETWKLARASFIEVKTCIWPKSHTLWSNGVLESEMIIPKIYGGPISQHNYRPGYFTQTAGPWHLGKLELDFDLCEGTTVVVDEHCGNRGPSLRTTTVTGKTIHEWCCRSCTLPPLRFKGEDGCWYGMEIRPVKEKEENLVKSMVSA
Kind of test: SPR; NS1 immobilized. (Surface plasmon resonance follows binding to a sensor surface in real time, without labels.)

The target in test [6] is T6, DENV-4 nonstructural protein 1 (NS1), recombinant (dengue virus serotype 4 (DENV-4)).
T6 chain: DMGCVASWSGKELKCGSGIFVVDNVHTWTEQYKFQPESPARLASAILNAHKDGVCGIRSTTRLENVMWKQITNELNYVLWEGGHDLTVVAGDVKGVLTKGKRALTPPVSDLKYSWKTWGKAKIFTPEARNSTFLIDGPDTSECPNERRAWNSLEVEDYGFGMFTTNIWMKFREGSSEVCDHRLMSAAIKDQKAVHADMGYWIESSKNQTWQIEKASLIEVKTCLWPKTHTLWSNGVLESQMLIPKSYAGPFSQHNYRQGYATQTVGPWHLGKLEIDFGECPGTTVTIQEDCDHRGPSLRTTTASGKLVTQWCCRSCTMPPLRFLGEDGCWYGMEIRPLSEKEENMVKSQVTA
Kind of test: SPR; NS1 immobilized.

Test [7] concerns the target T7, DENV-2 nonstructural protein 1 (NS1), recombinant (dengue virus serotype 2 (DENV-2)).
T7 chain: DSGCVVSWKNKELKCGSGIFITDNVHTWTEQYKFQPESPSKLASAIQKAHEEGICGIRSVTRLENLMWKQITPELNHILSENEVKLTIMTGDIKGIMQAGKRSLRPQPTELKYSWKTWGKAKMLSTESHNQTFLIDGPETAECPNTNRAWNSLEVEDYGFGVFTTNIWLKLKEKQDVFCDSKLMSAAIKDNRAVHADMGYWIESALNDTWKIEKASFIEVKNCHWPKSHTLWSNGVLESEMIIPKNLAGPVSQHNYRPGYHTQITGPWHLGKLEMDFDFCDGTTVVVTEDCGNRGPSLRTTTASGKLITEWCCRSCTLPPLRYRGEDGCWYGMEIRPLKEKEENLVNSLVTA
Put plainly: SPR; NS1 immobilized.

Test [8] deals with T8, DENV-3 nonstructural protein 1 (NS1), recombinant (dengue virus serotype 3 (DENV-3)).
T8 chain: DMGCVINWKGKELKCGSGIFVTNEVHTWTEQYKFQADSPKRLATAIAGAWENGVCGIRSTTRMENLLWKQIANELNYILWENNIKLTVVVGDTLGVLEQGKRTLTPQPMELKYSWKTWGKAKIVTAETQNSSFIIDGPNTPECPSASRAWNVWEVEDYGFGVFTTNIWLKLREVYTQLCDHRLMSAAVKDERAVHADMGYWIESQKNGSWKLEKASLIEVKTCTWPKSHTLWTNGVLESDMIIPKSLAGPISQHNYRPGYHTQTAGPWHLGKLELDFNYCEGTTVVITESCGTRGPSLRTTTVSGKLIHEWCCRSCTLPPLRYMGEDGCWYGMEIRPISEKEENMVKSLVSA
Put plainly: SPR; NS1 immobilized.

Test [9] deals with T1, DENV-1 nonstructural protein 1 (NS1), …. Kind of test: SPR. Conditions: both partners purified. The source holds these as a separate data set.
The target in test [10] is T2, DENV-2 nonstructural protein 1 (NS1), …. Put plainly: SPR. Conditions: both partners purified. The source holds these as a separate data set.
The target of test [11] is T3, DENV-3 nonstructural protein 1 (NS1), …. Put plainly: SPR. Conditions: both partners purified. This is another data set of the same source.
In test [12] the target is T4, DENV-4 nonstructural protein 1 (NS1), …. Put plainly: SPR. As to conditions: both partners purified. The source holds these as a separate data set.
The target of test [13] is T5, DENV-1 nonstructural protein 1 (NS1), …. Kind of test: SPR; sdAb immobilized.
Test [14] deals with T7, DENV-2 nonstructural protein 1 (NS1), …. Put plainly: SPR; sdAb immobilized.

B1: sdAb DH12 (VHH)
VHH: EVQLVESGGGSVQAGGSLRLSCAASERTFSYYFMGWFRQAPGKEREWVARIRWNGDGADYTDAVKDRFTISSDHAKNTVYLQMNSLKPEDTAVYYCAAANSIWKPTTRDYNYWGQGTQVSVSS
notes: source: E. coli Turner (DE3), pET22b, periplasmic, purified (Ni-Sepharose, SEC)
Consider B1, for which the Kd worked out at 14.4 nM in test [1], 9.8 nM in [2], 12.4 nM in test [3] and 20.9 nM in [4]. The koff worked out at 0.00658 s⁻¹ in [5], 0.00604 s⁻¹ in test [6], 0.00333 s⁻¹ in [7] and 0.00323 s⁻¹ in test [8].

B2: sdAb DD1 (VHH)
VHH: EVQLQASGGGLVQAGGSLRVSCAATGIAFASYAVAWYRQAPGKQREWVATVGGLGGTKYVDSVKGRFTISRDNAKNAVTLQMNSLKPEDTAVYYCAAVEWDDGHYYWDTWGQGTRVTVSA
notes: as for B1
As to B2, the Kd in test [1] amounted to 28.5 nM; in test [2], 15 nM; in test [3] it was 85.8 nM; in [4] it was 7.8 nM; in test [9], 2.2 nM; in [10] it was 2.3 nM. Also, the Kd in [11] came out at 17.7 nM; in [12], 0.6 nM. In addition, the koff is 0.000206 s⁻¹ in [13] and 0.000182 s⁻¹ in [14].

B3: sdAb DH4 (VHH)
VHH: DVQLQASGGGVVQAGGSLRVSCAATGIAFASYAVAWYRQAPGKQREWVATVGGLGGTKYVDSVRGRFTISRDNAKNAVTLQMNSLKPEDTAVYYCAAVEWDDGHYYWDTWGQGTRVTVSA
notes: as for B1
For B3, the dissociation constant Kd in [1] came out at 10.3 nM; in test [2], 8.5 nM; in test [3], 23.8 nM; in [4] it was 8.5 nM.

B4: sdAb DD7 (VHH)
VHH: EVQLVQSGGGSVQAGGSLRLSCAHSSITVPDYTIGWFRRAPGKGGEEVSLISMHGGRSWYAGSVKGRFAISRDSVKNTVYLQMNNLKPEDTDIYYCGGTTFGLAAAPNEYDSWGQGSQVTVSS
notes: as for B1
As to B4, the Kd worked out at 5.4 nM in test [1]; 20.3 nM in [2]; 7 nM in test [3]; 2.4 nM in test [4]; 1.7 nM in test [9]; 1.5 nM in test [10]. The Kd turned out to be 2.4 nM in [11] and 1.1 nM in [12]. For the same molecule, the values for the koff in test [13] and in test [14] were 0.000423 s⁻¹ and 0.000435 s⁻¹, respectively.

B5: sdAb DD6 (VHH)
VHH: EVQLQASGGGSVQAGGSLRLSCAHSSITVPDYTIGWYRRAPGKGGEEVSLISMHGGRTWYAGSVKGRFAISRDSVKNTVYLQMNNLKPEDTDIYYCGGTTFGLAAAPNEYDSWGQGSQVTVSS
notes: as for B1
Consider B5, for which the Kd is 7.6 nM in [1], 2 nM in test [2], 1.1 nM in test [3] and 2.5 nM in test [4].

B6: sdAb DD9 (VHH)
VHH: EVQLQASGGGLVQAGGSLRVSCAASGIAFTNYALAWYRQPPGKQREWVATVGVLGGTKYADSVKGRFAISRDNAKNTVILQMNSLKPVDTAVYFCAAVEWSNGRYYWDSWGQGTQVTVSA
notes: as for B1
As for B6, the Kd is 18 nM in test [1]; 6.7 nM in test [2]; 21.8 nM in test [3]; 34.8 nM in [4]; 2.7 nM in test [9]; 3.5 nM in [10]. Moreover, the Kd was found to be 3.1 nM in [11] and 7.1 nM in [12]. For the same molecule, the koff was found to be 0.00141 s⁻¹ in test [5]; 0.00428 s⁻¹ in test [6]; 0.000545 s⁻¹ in test [7]; 0.000951 s⁻¹ in test [8]; 0.000289 s⁻¹ in test [13]; 0.00034 s⁻¹ in [14].

B7: sdAb DC4 (VHH)
VHH: EVQLQASGGGLVQAGGSLRLSCAASERTFSHYFVGWFRQAPGKEREFVARITWSGSNVEYEDAVKDRFTLSSDNAKNTVYLHMNSLKPEDTAVYYCAAANTIWTPTIRDYNVWGQGTQVTVSS
notes: as for B1
Regarding B7, the Kd was determined as 62 nM in [1], 42.1 nM in test [2], 31.6 nM in test [3] and 43 nM in test [4]. Moreover, the koff in [5] amounted to 0.00889 s⁻¹; in test [6], 0.00501 s⁻¹; in test [7] it was 0.00604 s⁻¹; in test [8], 0.00741 s⁻¹.

B8: sdAb DD5 (VHH)
VHH: EVQLQASGGGLVQAGGSLRLSCAASGRAFSSETMGWFRQAPGKEREFVAAIWRIGGSTYNTDYADSVKGRFAISADRAKNTVDLQMNTLKPEDTAVYYCAGKMRGRSVNLYDYDYWGQGTQVTVSS
notes: as for B1
On to B8, for which the Kd in test [1] was 2.8 nM; in [2], 4.5 nM; in test [3] it was 3.2 nM; in test [4], 24 nM; in test [9] it was 4.2 nM; in [10] it was 0.9 nM. Further, the figures for the Kd in test [11] and in [12] were 25.1 nM and 6.2 nM, respectively. For the same molecule, the koff in test [5] is 0.000383 s⁻¹; in test [6], 0.00193 s⁻¹; in test [7], 0.000347 s⁻¹; in test [8] it was 0.000269 s⁻¹; in test [13], 0.000318 s⁻¹; in test [14], 7.99e-05 s⁻¹.

B9: sdAb DB5 (VHH)
VHH: DVQLQASGGGLVQDGGSLRLSCAASGLGFRIHSMGWYRQAPGKARDLVAVITDSGQTNYAPSVKGRFTISRESAGNTVYLQMNSLKPDDTAVYYCAVTTWDPHSYWGQGTQVTVSS
notes: as for B1
Consider B9, for which the binding result in test [1], in test [2] and in [4] was “no binding (tested: typically up to 300 nM)” each time. Also, the Kd stood at 4.4 nM in [3] and 1.6 nM in test [11].
